Measurements published in article doi:10.1101/2023.11.28.569054 (bioRxiv, 2023).
One block for each binder: values may come before it.

B4: NCLN (natural protein)
chain: AHEFTVYRMQQYDLQGQPYGTRNAVLNTEARTMAAEVLSRRCVLMRLLDFSYEQYQKALRQSAGAVVIILPRAMAAVPQDVVRQFMEIEPEMLAMETAVPVYFAVEDEALLSIYKQTQAASASQGSASAAEVLLRTATANGFQMVTSGVQSKAVSDWLIASVEGRLTGLGGEDLPTIVIVAHYDAFGVAPWLSLGADSNGSGVSVLLELARLFSRLYTYKRTHAAYNLLFFASGGGKFNYQGTKRWLEDNLDHTDSSLLQDNVAFVLCLDTVGRGSSLHLHVSKPPREGTLQHAFLRELETVAAHQFPEVRFSMVHKRINLAEDVLAWEHERFAIRRLPAFTLSHLESHRDGQRSSIMDVRSRVDSKTLTRNTRIIAEALTRVIYNLTEKGTPPDMPVFTEQMQIQQEQLDSVMDWLTNQPRAAQLVDKDSTFLSTLEHHLSRYLKDVKQHHVKADKRDPEFVFYDQLKQVMNAYRVKPAVFDLLLAVGIAAYLGMAYVAVQHFSLLYKTVQRLLVKAKTQ

Legend:
Assay in all cases: cryo-EM structure
[1] = biological target: T1, TMEM147 of TMEM147-5aa-TEV-GFP-40aa(ALFA)-EMC2 (human, UniProt Q9BVK8 1-224)
T1 sequence: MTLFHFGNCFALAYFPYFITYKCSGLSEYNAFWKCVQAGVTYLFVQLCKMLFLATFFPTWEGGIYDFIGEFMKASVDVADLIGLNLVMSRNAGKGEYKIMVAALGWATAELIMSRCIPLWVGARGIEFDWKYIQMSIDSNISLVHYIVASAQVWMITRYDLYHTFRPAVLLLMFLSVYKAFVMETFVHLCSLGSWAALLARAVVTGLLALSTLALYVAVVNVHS

[2] = biological target: B4
[3] = biological target: T2, NCLN of BOS (tNOMO) (human, UniProt Q969V3 43-563)
T2 sequence: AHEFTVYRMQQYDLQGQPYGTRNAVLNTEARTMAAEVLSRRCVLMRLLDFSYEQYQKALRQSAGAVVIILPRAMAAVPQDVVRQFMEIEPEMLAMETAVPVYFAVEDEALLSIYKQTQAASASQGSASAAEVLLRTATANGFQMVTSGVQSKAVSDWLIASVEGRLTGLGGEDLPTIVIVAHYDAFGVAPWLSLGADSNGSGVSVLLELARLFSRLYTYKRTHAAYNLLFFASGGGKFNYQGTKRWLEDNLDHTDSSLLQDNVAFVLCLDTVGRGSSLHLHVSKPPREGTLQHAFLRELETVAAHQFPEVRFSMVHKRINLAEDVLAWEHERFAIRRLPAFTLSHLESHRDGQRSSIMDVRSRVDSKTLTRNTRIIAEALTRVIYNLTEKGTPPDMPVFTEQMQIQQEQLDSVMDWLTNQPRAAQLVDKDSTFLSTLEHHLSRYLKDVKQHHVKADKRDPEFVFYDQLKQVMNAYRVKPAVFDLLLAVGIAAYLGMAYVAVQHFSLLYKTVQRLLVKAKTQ

[4] = biological target: T3, EMC1 (human (endogenous in Expi293), UniProt Q8N766 23-993)
T3 sequence: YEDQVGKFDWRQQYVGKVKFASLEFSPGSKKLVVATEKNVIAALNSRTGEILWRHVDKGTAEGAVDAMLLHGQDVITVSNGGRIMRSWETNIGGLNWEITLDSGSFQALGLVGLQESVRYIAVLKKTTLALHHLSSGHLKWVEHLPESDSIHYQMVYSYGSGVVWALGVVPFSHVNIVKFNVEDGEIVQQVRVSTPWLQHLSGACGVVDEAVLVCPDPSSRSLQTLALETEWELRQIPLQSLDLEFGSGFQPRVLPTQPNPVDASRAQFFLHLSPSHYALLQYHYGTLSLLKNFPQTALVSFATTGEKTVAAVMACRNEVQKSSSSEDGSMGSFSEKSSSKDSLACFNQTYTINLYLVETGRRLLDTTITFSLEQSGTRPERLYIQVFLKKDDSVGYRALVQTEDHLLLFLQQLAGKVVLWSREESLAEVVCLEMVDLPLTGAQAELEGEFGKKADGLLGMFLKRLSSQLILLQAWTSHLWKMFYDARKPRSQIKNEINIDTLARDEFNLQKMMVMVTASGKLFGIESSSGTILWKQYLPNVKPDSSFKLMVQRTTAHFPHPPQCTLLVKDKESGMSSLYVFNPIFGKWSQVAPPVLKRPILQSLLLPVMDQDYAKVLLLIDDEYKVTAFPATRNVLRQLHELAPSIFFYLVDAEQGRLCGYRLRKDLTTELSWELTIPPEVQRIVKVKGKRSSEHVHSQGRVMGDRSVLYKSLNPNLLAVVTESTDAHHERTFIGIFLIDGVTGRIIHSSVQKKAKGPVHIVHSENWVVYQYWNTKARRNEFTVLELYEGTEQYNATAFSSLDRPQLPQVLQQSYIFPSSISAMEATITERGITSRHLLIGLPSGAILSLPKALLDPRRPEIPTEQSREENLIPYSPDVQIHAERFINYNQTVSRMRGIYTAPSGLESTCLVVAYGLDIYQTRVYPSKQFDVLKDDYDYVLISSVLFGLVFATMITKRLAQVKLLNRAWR

B1: EMC5 (natural protein)
chain: MAPSLWKGLVGIGLFALAHAAFSAAQHRSYMRLTEKEDESLPIDIVLQTLLAFAVTCYGIVHIAGEFKDMDATSELKNKTFDTLRNHPSFYVFNHRGRVLFRPSDTANSSNQDALSSNTSLKLRKLESLRR
binding result [1]: binds

Binder: B4
binding result [4]: binds

Further lines, results first:

binding result [2]: binds
B2: TMEM147-GFP (natural protein)
chain: MTLFHFGNCFALAYFPYFITYKCSGLSEYNAFWKCVQAGVTYLFVQLCKMLFLATFFPTWEGGIYDFIGEFMKASVDVADLIGLNLVMSRNAGKGEYKIMVAALGWATAELIMSRCIPLWVGARGIEFDWKYIQMSIDSNISLVHYIVASAQVWMITRYDLYHTFRPAVLLLMFLSVYKAFVMETFVHLCSLGSWAALLARAVVTGLLALSTLALYVAVVNVHS

binding result [3]: binds
B3: TMEM147 (from TMEM147-TEV-GFP, tag removed) (natural protein)
chain: MTLFHFGNCFALAYFPYFITYKCSGLSEYNAFWKCVQAGVTYLFVQLCKMLFLATFFPTWEGGIYDFIGEFMKASVDVADLIGLNLVMSRNAGKGEYKIMVAALGWATAELIMSRCIPLWVGARGIEFDWKYIQMSIDSNISLVHYIVASAQVWMITRYDLYHTFRPAVLLLMFLSVYKAFVMETFVHLCSLGSWAALLARAVVTGLLALSTLALYVAVVNVHS
